From PMC4695401 (Chemistry & biology, 2015)
Ends that are not written are not given here. PEG = not defined here

Target: BRD-containing DNA-PKcs fragment (aa1878-2700) (UniProt P78527 1878-2700)
Test: pull-down

Chain of BRD-containing DNA-PKcs fragment (aa1878-2700) (P78527 1878-2700): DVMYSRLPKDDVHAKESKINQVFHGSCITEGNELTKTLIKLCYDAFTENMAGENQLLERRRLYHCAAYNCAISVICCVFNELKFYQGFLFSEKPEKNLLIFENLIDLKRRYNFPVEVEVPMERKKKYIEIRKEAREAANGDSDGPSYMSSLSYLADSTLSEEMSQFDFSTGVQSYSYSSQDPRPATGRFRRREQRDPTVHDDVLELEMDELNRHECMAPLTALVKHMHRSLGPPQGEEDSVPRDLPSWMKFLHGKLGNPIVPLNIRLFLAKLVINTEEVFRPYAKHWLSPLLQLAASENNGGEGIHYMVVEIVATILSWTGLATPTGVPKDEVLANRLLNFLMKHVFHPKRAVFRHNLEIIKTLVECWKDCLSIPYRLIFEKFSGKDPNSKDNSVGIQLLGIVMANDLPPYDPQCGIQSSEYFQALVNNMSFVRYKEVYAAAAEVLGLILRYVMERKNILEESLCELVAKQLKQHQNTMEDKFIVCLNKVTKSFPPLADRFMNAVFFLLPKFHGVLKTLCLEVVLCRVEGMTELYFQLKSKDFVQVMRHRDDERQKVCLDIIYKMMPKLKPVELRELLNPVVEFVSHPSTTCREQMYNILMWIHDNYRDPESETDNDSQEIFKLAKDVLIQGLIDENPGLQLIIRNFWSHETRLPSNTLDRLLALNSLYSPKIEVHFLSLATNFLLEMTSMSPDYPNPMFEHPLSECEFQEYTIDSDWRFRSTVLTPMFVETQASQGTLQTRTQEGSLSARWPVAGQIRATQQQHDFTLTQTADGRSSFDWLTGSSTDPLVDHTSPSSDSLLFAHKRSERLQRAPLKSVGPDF

B1: H2AX K5ac-containing peptide (peptide)
peptide: SGRGK(Ac)TGGKARAKAKSR-{PEG-biotin}
modifications: reading uncertain
B1: binds.
